# Measurements from patent US20210380707A1.
# Changes are numbered by the printed parent chain.
# B1: 18F8A8 (antibody, IgG1, V domains shown)
# VH: QVTLKESGPGILQPSQTLSLTCSFSGFSLSTSNMGVAWIRQPLGKGLEWLLYILWNDTKYYNPALKSRLSISKDTYNNQVFLKIVNVDTADTATYYCARIRRDYALDYWGQGTSVTVSS
# VL: DIVMSQSPSSLAVSVGEKVTMNCKSSQSLLYSNNQKNYLAWYQQKPGQSPKLLIYWASTRESGVPDRFTGSGSGTDFTLTISSVKAEDLAVYYCQQYYIYPLAFGGGTKLEIK
# B2: 19H7E4 (antibody, IgG1, V domains shown)
# VH: QVTLKESGPGILQPSQTLSLTCSFSGFSLSTSNVGVGWIRQPSGKGLEWLLHILWNDGKYYNPALKSRLTISKDTSTNQVFLKIADVDTADSATYYCARLRRDYGMDYWGQGTSVTVSS
# VL: B1 VL with N22S, N33Y, I99T, L102Y
# B3: 16D7C8 (antibody, IgG3, V domains shown)
# VH: QVQLQQSGPELVKPGASVRISCKASGYTFTSFYIHWVKQRPGQGLEWIGWISPINININYNEKFKGKATLTADKSSSTVYMQLSSLTSEDSAVYFCEGTSENFDVWGAGTTVTVSS
# VL: DVLMTQIPLSLPVSLGDQASISCRSTQNIVHSNGNTYLEWYLQKPGQSPKLLIYKVSNRFSGVPDRFRGSGSGTEFTLKITRVEADDLGVYYCFQGSHVPFTFGAGTKLELK
# B4: 4E6G9 (antibody, V domains shown)
# VH: QIQLVQSGPELKKAGETVKISCKASGYTFAAYSMHWVKQAPGKGLKWMGWINTETGEPTYADDFKGRFAFSLETSASTAYLQINNLKNEDTATYFCTRDDYDGGRFSYWYFAVWGAGTTVTVSS
# VL: DIQMTQSPSSLSASLGGKVTITCKASQDINKYIAWYQHRPGKGPRLLIRYTSTLQPGIPSRFSGSGSGRDYSFSINNLEPEDIATYYCLQYDNLLTFGGGTKLEIK
# B5: 11E12E8 (antibody, IgG1, V domains shown)
# VH: DVQLVESGGGLVQPGGSRKLSCAASGFTFSRFGMNWVRQAPEKGLEWVAYISSGSGDIYYADTVKGRFTISRDNPKNTLFLQMTSLRSEDTAMYYCAVTWFAYWGQGTLVTVSA
# VL: QAVVTQEPALTTSPGETVTLTCRSSTGAVTTSNYANWVQEKPDHLFTGLIGGTNNRAPGVPARFSGSLIGDKAALTITGAQTEDEAIYFCVLWYSNHFIFGSGTKVTVL
# B6: 3H11D12E7 (antibody, V domains shown)
# VH: QIQLVQSGPELKKPGETVKISCKASGYTFTDYSMHWVKQAPGKGLKWMGWINTETGEPTYADDFKGRFAFSLETSASTAYLQINNLKNDDTATYFCARSFYRYDWYFDVWGAGTTVTVSS
# VL: QIVLTQSPAIMSASPGEKVTITCSASSSVSFMHWFQQKPGTSPKLWIYSTSNLASGVPARFSGSGSGTSYSLTISRMEAEDAATYYCQQRTSFPPTFGGGTNLEIK
# Molecular target: recombinant human CD70 tagged with mouse IgG2a Fc (AcroBiosystems Cat#CDL-H525a) (human; mouse) (UniProt P32970)
# Assay: indirect ELISA, hybridoma supernatant, coated antigen A at 1 µg/ml
# recombinant human CD70 tagged with mouse IgG2a Fc (AcroBiosystems Cat#CDL-H525a) (human; mouse), sequence (P32970 39-193): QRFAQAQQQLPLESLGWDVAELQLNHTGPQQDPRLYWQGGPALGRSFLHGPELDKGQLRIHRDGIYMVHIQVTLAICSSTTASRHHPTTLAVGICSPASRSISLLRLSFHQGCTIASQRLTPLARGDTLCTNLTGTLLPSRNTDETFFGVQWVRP
row,OD 450,Binder
1,1.97 OD 450,B1
2,1.85 OD 450,B2
3,2.12 OD 450,B3
4,2.51 OD 450,B4
5,1.01 OD 450,B5
6,1.87 OD 450,B6

# Molecular target: Mouse IgG2a protein (AcroBiosystems Cat# IGA-M5207) (mouse) [IgG part: P01863]
# Assay: indirect ELISA, hybridoma supernatant, coated antigen B at 1 µg/ml
# Mouse IgG2a protein (AcroBiosystems Cat# IGA-M5207) (mouse) [IgG part: P01863], sequence (P01863 98-330): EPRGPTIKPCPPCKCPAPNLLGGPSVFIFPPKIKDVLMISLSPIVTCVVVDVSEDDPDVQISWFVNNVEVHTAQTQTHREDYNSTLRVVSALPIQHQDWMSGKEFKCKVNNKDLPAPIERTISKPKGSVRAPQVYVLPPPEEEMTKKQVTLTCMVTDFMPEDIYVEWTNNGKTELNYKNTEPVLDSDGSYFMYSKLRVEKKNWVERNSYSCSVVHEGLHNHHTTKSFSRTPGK
row,OD 450,Binder
1,0.146 OD 450,B1
2,0.134 OD 450,B2
3,0.154 OD 450,B3
4,0.121 OD 450,B4
5,0.107 OD 450,B5
6,0.115 OD 450,B6
